Data from patent publication US20200292534A1 (published 2020).
Read-outs that look alike come from different tables or passages of the source.

T1: NLpoly11S
T1 chain: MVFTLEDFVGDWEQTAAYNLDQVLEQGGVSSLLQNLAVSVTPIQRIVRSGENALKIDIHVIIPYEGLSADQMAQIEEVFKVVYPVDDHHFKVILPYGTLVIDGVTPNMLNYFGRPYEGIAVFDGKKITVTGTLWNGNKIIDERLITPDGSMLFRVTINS


Key:
Assay in all cases: luminescence complementation titration, one-site specific binding
[1] = target: T1, NLpoly11S
[2] = target: T1, NLpoly11S
[3] = target: T1, NLpoly11S

| Binder | Kd [1] [µM] | Kd [2] [nM] | Kd [3] [nM] |
| --- | --- | --- | --- |
| VTGYRLFEEIL [NLpep114] | 199 | – | – |
| MNVTGYRLFKKISN (other) [NLpep79-HaloTag] | – | 22.9 | – |
| GVTGWRLCERILA [NLpep1] | 2.46 | – | – |
| MNVSGWRLFKKISN (other) [NLpep78-HaloTag] | – | – | 30.2 |
| NVTGYRLFKKISN (other) [HaloTag-NLPep79] | – | 33.9 | – |
| NVSGWRLFKKISN (other) [HaloTag-NLPep78] | – | – | 7.21 |
